The values that follow come from PMC12790805, “The Structure of the Drp1 Lattice on Membrane” (Journal of molecular biology, 2025).

For series [1], the target named is Drp1 with deletion of the MoRF-1 sequence (human) (UniProt O00429). The experiment in a line: mass photometry; Drp1 in solution; molecular weight determined by mass photometry; conditions not given.
Series [2] deals with the molecule itself. The series is described as above.

For orientation: stoichiometry N means a count of units in the complex or per binding partner.

“And” between values parts separate entries of the source, which are not always exact repeats. Equal values may be shown once.

Turning to “Drp1 with deletion of the MoRF-1 sequence (from UniProt O00429-4 1-699) (enzyme)”, the stoichiometry N in series [1] came to 2.

B1: dynamin-related protein 1 (Drp1) isoform 3, full-length human (enzyme, UniProt O00429-4 1-699, looked up)
chain: MEALIPVINKLQDVFNTVGADIIQLPQIVVVGTQSSGKSSVLESLVGRDLLPRGTGIVTRRPLILQLVHVSQEDKRKTTGEENGVEAEEWGKFLHTKNKLYTDFDEIRQEIENETERISGNNKGVSPEPIHLKIFSPNVVNLTLVDLPGMTKVPVGDQPKDIELQIRELILRFISNPNSIILAVTAANTDMATSEALKISREVDPDGRRTLAVITKLDLMDAGTDAMDVLMGRVIPVKLGIIGVVNRSQLDINNKKSVTDSIRDEYAFLQKKYPSLANRNGTKYLARTLNRLLMHHIRDCLPELKTRINVLAAQYQSLLNSYGEPVDDKSATLLQLITKFATEYCNTIEGTAKYIETSELCGGARICYIFHETFGRTLESVDPLGGLNTIDILTAIRNATGPRPALFVPEVSFELLVKRQIKRLEEPSLRCVELVHEEMQRIIQHCSNYSTQELLRFPKLHDAIVEVVTCLLRKRLPVTNEMVHNLVAIELAYINTKHPDFADACGLMNNNIEEQRRNRLARELPSAVSRDKVASGGGGVGDGVQEPTTGNWRGMLKTSKAEELLAEEKSKPIPIMPASPQKGHAVNLLDVPVPVARKLSAREQRDCEVIERLIKSYFLIVRKNIQDSVPKAVMHFLVNHVKDTLQSELVGQLYKSSLLDDLLTESEDMAQRRKEAADMLKALQGASQIIAEIRETHLW
notes: human dynamin-related protein 1 (Drp1), isoform 3, UniProt O00429-4, full length; CBP tag removed with PreScission protease; also called Drp1-3; WT; source: E. coli BL21 (DE3) Star, purified (calmodulin agarose, SEC)
For B1, the “stoichiometry N” value in series [2] was 2 and 4 and 6.
